Measured values published in publication PMC11797056, “The ATPase activity of yeast chromosome axis protein Hop1 affects the frequency of meiotic crossovers” (Nucleic Acids Research, 2024).
One block for each molecule: values may come before it.

Experiments:
[1] = target: T1, Hop1 (Saccharomyces cerevisiae, UniProt P20050); experiment: ITC (also ATP-agarose chromatography, UV crosslinking/filter binding, ATPase kinetics with Km […])
T1 construct: full-length His6-tagged WT Hop1
T1 sequence (P20050 1-605): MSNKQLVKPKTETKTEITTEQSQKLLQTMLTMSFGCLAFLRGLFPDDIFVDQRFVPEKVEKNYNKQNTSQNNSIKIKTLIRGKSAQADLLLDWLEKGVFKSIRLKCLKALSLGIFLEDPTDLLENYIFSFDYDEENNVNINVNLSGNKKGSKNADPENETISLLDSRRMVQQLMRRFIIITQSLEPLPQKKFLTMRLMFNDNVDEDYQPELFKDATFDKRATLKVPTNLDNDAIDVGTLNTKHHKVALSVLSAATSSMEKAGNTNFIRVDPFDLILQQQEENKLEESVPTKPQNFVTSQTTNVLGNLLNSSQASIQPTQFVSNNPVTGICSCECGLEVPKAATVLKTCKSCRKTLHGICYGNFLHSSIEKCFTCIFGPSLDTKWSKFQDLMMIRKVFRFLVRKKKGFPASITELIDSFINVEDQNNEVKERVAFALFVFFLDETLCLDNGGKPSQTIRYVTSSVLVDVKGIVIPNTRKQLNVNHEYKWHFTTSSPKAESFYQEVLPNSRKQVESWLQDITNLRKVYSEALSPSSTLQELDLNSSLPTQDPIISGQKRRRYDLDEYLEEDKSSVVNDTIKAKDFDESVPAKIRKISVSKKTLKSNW

[2] = target: T2, Hop1 HORMA domain (S. cerevisiae, UniProt P20050 20-250, Red-tris-NTA label (in the MST only)); experiment: MST; Red-tris-NTA labelled Hop1 HORMA domain fixed at 20 nM, Hop1-CTD titrated 0.00031 to 10 uM; incubated at 37°C for 15 min; Pico-RED, 5% excitation power; Hill model; apparent Kd; details: both partners purified
T2 construct: Hop1, S. cerevisiae, N-terminal HORMA domain; Amplified from pET28a-HOP1 and cloned NdeI/XhoI into pET14b; also called N-terminal HORMA domain; N-terminal region of Hop1; source: E. coli Rosetta (DE3), pET-14b, purified (Ni2+-NTA); not shown: His tag (inferred: Ni2+-NTA purification); Red-tris-NTA labelling; anti-His detection
T2 sequence (looked up): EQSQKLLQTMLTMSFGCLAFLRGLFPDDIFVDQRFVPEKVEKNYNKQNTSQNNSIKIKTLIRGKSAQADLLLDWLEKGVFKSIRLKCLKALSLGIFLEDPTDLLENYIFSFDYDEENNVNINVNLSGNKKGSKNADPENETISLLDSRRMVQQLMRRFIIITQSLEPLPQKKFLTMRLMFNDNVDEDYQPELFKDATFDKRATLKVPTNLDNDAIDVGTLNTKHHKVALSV

[3] = target: T3, Hop1 WT (Saccharomyces cerevisiae, UniProt P20050 1-605); experiment: MST; 25 nM HJ; EMSA: 25 mM HEPES pH 7.5, 0.5 nM 32P-HJ, 37 C 15 min, 8% PAGE in TBE (25 mM Tris base pH 8.0, 25 mM boric acid, 0.5 mM EDTA) at 4 C; MST: 25 nM 6-FAM HJ, buffer not in material; details: protein: recombinant; tags: N-terminal His6 (pET28a); label: 5'-6FAM on HJ02; four-way junction of 4 strands
T3 sequence: T1 sequence (P20050 1-605)

Molecule: Nc1ncnc2c1ncn2C1OC(COP(=O)(O)OP(=O)(O)OP(=O)(O)O)C(O)C1O (stereo not drawn) [ATP]
Kd [1]: ~32.9 µM

Kd [2]: 1900 ± 500 nM
B1: Hop1-CTD (domain or fragment)
chain: LSAATSSMEKAGNTNFIRVDPFDLILQQQEENKLEESVPTKPQNFVTSQTTNVLGNLLNSSQASIQPTQFVSNNPVTGICSCECGLEVPKAATVLKTCKSCRKTLHGICYGNFLHSSIEKCFTCIFGPSLDTKWSKFQDLMMIRKVFRFLVRKKKGFPASITELIDSFINVEDQNNEVKERVAFALFVFFLDETLCLDNGGKPSQTIRYVTSSVLVDVKGIVIPNTRKQLNVNHEYKWHFTTSSPKAESFYQEVLPNSRKQVESWLQDITNLRKVYSEALSPSSTLQELDLNSSLPTQDPIISGQKRRRYDLDEYLEEDKSSVVNDTIKAKDFDESVPAKIRKISVSKKTLKSNW

B2: Holliday junction (HJ), 6-FAM (structured_DNA)
DNA 1: GACGCTGCCGAATTCTACCAGTGCCTTGCTAGGACATCTTTGCCCACCTGCCGGTTCACCC
DNA 2: TGGGTGAACCTGCAGGTGGGCAAAGATGTCCTAGCAATGTAATCGTCAAAGCTTTATGCCGTT
DNA 3: CAACGGCATAAAGCTTGACGATTACATTGCTAGGACATGCTGTCTAGAGGATCCGACTATCGA
DNA 4: ATCGATAGTCGGATCCTCTAGACAGCATGTCCTAGCAAGGCACTGGTAGAATTCGGCAGCGT
Kd [3]: 206 nM
